Measurements taken from article PMC7712654 (2020).

B1: α-CT coiled-coil domain fused with HIS tag (α-CT-His), fluorescently labeled (domain or fragment)
chain: INMKKREAVFSDSRKLQGEVDKLKEQILKAKETSTEAEPSSEVLNEMIEKLKSEIDDEYTEAAIAVGLEERLTAMREEFSKASSEEHLMHPVLIEKIEKLKEEFNTRLTDAPNYESLKSKLNMLRDFSRAKAASEATSLKKEINKRFQEAVDRPEIREKVEAIKAEVASSGASSFDELPDALKEKVLKTKGEVEAEMAGVLKSMGLELDAVKQNQKDTAEQIYAANENLQEKLEKLNQEITSKIEEVVRTPEIKSMVELLKVETAKASKTPGVTEAYQKIEALEQQIKQKIAEALNTSGLQEKQDELEKELAAARELAAEESDGSVKEDDDDDEDSSESGKSEMVNPSFA
modifications: fluorescently labeled using His-tag labeling kit (NanoTemper, MO-L008)

Legend:
[1] = molecular target: coiled-coil domain of CTI3 fused with HIS tag (Arabidopsis thaliana); assay: MST
[2] = molecular target: B1; assay: MST

Binder | Kd [1] [nM] | Kd [2] [nM]
B1 | 114 | –
coiled-coil domain of CTI1 fused with HIS tag (domain or fragment) PQISKAIAGADRKDLMRKLPKFIYDEEKALEKTRKVLAEKIAQLNSAIDDVSSQLKSEDTPNGAALSTDEIEATA | – | 14.8
